Consider 4 substances from patent publication US20190309079A1.

For experiment [1], the target named is Macaca fascicularis LEPR extracellular domain expressed with a C-terminal myc-myc-hexahistidine tag (mfLEPR.mmh) (Macaca fascicularis). The experiment is described as follows: SPR, captured mAb, 37C. In general terms: SPR reads the build-up and loss of mass on a sensor chip optically.
Experiment [2] has as its target human LEPR extracellular domain expressed with a C-terminal mouse IgG2a Fc tag (hLEPR.mFc) (human). Kind of experiment: SPR, captured mAb, 37C.
Experiment [3] addresses human LEPR extracellular domain expressed with a C-terminal myc-myc-hexahistidine tag (hLEPR.mmh) (human) (UniProt P48357). Kind of experiment: SPR, captured mAb, 37C.
For experiment [4], the target named is Macaca fascicularis LEPR extracellular domain expressed with a C-terminal myc-myc-hexahistidine tag (mfLEPR.mmh) (Macaca fascicularis). Kind of experiment: SPR, captured mAb, 25C.
For experiment [5], the target named is human LEPR extracellular domain expressed with a C-terminal mouse IgG2a Fc tag (hLEPR.mFc) (human). The experiment is described as follows: SPR, captured mAb, 25C.
Experiment [6] deals with human LEPR extracellular domain expressed with a C-terminal myc-myc-hexahistidine tag (hLEPR.mmh) (human) (UniProt P48357). Kind of experiment: SPR, captured mAb, 25C.
In experiment [7] the target is extracellular domain portion of LEPR protein expressed with a C-terminal human Fc tag (hLEPR.hFc) (human). The experiment is described as follows: blocking ELISA, hLeptin coated. Background: An ELISA detects its analyte on a solid surface through an enzyme-linked reagent.
Experiment [8] has as its target extracellular domain of human LEPR (amino acids 22-839 of P48357, Isoform B) with N-terminal myc-myc tag, GPI-anchored on HEK293 cells (HEK293/hLEPR-GPI) (human) (UniProt P48357). The experiment is described as follows: FACS, 70 nM Ab, HEK293/hLEPR-GPI, no Leptin. (In general: Flow cytometry measures light scatter and fluorescence of single cells or particles in a stream.)

Experiment [9] has the same target. Kind of experiment: FACS, 10 nM Ab, HEK293/hLEPR-GPI, 1 uM Leptin.
Experiment [10] has the same target. The experiment is described as follows: FACS, 10 nM Ab, HEK293/hLEPR-GPI, no added Leptin.
In experiment [11] the target is full length human LEPR (amino acids 1-1165 of P48357, Isoform B) on cells (human) (UniProt P48357). Kind of experiment: FACS, 70 nM Ab, HEK293/Stat3-luc/hLEPR-FL, no Leptin.
Experiment [12] has as its target extracellular domain of human LEPR (amino acids 22-839 of P48357, Isoform B) with N-terminal myc-myc tag, GPI-anchored on HEK293 cells (HEK293/hLEPR-GPI) (human) (UniProt P48357). The experiment is described as follows: FACS, HEK293/hLEPR-GPI, no Leptin.
For experiment [13] the target is unchanged. The experiment is described as follows: FACS, HEK293/hLEPR-GPI, 1 uM Leptin.
For experiment [14] the target is unchanged. Kind of experiment: FACS, HEK293/hLEPR-GPI, no added Leptin.
For experiment [15], the target named is full length human LEPR (amino acids 1-1165 of P48357, Isoform B) on cells (human) (UniProt P48357). Kind of experiment: FACS, HEK293/Stat3-luc/hLEPR-FL, no Leptin.
Experiment [16] concerns the target human LEPR CRH1 (D1)-MMH (human) (UniProt P48357). Kind of experiment: Luminex, myc-captured protein on beads.

Chain of extracellular domain of human LEPR (amino acids 22-839 of P48357, Isoform B) with N-terminal myc-myc tag, GPI-anchored on HEK293 cells (HEK293/hLEPR-GPI) (human) (P48357 22-839, one chain of several): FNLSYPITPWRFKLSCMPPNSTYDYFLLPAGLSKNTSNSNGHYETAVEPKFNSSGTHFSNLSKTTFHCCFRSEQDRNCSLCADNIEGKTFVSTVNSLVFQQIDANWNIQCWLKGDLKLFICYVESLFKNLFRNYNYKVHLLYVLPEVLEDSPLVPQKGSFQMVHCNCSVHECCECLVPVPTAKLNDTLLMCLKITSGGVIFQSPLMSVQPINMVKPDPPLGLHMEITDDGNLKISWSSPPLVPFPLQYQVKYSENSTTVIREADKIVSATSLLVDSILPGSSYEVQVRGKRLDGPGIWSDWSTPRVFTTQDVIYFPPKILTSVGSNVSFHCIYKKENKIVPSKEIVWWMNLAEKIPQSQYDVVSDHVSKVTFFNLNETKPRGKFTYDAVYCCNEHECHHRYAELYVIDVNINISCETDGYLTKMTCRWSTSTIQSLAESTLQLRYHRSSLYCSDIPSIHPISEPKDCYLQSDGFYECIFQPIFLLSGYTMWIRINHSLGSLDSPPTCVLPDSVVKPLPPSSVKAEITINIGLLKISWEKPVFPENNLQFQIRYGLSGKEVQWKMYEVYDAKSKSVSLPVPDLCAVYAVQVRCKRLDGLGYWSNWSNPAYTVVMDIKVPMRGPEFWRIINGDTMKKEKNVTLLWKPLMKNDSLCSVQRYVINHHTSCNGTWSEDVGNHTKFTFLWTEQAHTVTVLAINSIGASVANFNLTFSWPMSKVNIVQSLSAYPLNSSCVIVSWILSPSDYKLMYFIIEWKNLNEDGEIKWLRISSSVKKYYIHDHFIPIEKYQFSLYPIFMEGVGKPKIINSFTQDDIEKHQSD
Chain of extracellular domain portion of LEPR protein expressed with a C-terminal human Fc tag (hLEPR.hFc) (human) (chain, as listed by the source limits assumed): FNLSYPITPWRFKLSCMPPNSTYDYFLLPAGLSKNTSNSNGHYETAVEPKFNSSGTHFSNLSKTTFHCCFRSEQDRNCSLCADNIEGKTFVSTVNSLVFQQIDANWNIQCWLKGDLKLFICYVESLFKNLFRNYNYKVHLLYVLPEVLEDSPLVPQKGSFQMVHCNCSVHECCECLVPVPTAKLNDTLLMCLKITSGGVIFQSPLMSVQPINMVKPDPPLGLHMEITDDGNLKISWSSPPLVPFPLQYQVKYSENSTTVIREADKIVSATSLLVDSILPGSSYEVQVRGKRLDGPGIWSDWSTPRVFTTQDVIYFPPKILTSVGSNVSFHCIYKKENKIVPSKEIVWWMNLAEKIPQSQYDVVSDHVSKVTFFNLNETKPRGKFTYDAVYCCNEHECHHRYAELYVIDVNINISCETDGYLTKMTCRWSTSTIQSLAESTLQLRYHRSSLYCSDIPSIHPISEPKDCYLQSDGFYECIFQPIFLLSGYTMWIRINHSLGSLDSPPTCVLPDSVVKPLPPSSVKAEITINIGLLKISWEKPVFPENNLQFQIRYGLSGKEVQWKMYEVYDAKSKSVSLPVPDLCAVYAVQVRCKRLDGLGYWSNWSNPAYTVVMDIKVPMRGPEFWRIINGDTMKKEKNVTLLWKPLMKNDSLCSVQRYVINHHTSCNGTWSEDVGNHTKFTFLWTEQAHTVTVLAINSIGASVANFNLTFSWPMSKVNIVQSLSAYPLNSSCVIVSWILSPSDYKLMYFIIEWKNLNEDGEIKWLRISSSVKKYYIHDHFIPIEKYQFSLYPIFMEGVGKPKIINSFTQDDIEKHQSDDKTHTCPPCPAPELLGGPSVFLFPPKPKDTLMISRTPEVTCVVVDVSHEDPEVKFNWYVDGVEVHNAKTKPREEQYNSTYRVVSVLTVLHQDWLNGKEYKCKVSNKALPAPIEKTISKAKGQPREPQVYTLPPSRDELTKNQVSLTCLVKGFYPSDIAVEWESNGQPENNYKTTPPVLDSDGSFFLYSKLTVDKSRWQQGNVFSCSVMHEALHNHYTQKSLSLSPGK
Chain of human LEPR extracellular domain expressed with a C-terminal myc-myc-hexahistidine tag (hLEPR.mmh) (human) (P48357 other isoform, or with tags, fused parts or gaps): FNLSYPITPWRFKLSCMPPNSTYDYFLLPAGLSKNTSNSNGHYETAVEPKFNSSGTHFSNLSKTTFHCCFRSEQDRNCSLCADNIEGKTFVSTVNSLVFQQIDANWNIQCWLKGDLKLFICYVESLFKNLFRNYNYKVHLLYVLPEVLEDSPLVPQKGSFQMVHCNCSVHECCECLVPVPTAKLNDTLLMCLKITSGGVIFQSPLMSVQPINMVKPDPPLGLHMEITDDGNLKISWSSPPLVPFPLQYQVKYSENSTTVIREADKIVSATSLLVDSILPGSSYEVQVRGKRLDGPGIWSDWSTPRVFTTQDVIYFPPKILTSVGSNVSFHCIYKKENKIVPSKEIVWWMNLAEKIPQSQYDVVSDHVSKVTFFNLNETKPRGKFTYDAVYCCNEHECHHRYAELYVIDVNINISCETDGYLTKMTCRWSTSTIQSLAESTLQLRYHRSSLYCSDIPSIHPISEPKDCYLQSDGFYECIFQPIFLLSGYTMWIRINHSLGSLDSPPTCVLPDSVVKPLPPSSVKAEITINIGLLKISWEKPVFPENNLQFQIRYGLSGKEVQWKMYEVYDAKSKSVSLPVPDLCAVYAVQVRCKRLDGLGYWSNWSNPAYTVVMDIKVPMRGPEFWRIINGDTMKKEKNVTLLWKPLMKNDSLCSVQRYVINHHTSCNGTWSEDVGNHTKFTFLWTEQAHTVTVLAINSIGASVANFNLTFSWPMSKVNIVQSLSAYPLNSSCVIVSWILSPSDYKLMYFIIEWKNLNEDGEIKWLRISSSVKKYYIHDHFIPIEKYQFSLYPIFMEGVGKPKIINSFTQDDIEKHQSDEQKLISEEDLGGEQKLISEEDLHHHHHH
Chain of Macaca fascicularis LEPR extracellular domain expressed with a C-terminal myc-myc-hexahistidine tag (mfLEPR.mmh) (Macaca fascicularis) (Q9MYL0 other isoform, or with tags, fused parts or gaps): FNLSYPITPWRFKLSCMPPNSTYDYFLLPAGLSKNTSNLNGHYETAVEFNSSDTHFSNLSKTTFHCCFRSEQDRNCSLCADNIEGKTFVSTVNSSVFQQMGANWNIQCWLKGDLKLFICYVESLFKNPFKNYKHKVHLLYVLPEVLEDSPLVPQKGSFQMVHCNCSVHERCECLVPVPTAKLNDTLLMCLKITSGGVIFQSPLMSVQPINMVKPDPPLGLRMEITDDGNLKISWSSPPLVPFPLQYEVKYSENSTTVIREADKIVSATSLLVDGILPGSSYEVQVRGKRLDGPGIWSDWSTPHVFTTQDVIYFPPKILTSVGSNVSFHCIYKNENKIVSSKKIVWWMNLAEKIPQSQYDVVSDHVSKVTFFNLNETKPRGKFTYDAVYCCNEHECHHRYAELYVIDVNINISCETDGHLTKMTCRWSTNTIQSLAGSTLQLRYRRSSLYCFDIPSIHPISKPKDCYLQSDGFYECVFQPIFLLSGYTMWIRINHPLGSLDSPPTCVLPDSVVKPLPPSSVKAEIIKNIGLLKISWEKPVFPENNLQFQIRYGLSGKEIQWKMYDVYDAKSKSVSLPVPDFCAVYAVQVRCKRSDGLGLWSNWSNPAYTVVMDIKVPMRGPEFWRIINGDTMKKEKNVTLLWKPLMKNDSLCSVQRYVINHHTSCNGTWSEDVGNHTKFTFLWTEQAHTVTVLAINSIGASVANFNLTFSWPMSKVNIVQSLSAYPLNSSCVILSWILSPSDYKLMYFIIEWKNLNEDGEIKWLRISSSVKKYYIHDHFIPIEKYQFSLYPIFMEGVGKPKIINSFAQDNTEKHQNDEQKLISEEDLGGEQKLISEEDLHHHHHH
Chain of full length human LEPR (amino acids 1-1165 of P48357, Isoform B) on cells (human) (P48357 22-1165): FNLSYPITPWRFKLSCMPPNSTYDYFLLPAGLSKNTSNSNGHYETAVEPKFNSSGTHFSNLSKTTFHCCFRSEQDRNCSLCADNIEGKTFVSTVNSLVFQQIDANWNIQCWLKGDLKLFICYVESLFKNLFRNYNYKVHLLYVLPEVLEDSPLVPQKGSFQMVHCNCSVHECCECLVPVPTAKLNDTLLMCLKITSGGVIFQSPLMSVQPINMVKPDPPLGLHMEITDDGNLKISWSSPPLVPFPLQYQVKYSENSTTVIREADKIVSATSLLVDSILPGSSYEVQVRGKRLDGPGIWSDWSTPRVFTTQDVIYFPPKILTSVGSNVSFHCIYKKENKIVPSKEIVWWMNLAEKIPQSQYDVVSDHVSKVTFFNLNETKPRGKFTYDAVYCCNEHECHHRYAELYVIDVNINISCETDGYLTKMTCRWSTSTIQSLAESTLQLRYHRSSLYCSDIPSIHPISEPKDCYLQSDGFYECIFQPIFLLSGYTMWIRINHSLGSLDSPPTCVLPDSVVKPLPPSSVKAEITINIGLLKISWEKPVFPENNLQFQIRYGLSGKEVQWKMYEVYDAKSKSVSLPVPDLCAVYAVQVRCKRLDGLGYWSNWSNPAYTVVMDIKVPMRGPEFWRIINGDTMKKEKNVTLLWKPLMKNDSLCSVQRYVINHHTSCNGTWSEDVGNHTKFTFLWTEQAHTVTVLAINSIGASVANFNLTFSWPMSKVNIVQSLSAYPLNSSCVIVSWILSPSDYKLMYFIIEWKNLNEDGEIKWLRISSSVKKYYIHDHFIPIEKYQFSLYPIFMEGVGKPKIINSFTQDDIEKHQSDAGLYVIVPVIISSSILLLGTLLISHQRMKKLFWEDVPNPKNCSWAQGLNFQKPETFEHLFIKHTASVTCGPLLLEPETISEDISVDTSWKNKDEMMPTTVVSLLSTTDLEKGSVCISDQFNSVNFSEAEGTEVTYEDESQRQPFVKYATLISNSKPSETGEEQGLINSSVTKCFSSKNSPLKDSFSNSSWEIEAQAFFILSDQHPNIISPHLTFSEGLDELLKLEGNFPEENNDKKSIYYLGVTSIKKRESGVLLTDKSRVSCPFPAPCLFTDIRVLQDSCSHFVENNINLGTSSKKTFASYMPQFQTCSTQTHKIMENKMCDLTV
Chain of human LEPR CRH1 (D1)-MMH (human) (P48357 22-229 limits assumed): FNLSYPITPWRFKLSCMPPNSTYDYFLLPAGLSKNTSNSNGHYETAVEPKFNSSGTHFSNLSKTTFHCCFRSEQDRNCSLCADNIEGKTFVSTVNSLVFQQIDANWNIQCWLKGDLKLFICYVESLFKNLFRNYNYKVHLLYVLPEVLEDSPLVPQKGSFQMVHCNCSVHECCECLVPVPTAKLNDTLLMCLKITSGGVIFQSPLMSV

As to Isotype Control monoclonal antibody, the 100 nM mfLEPR.MMH Bound (RU) in experiment [1] was 1 RU. Besides, the results for the 100 nM hLEPR-mFc Bound (RU) in experiment [2] and in experiment [5] were 1 RU and -2 RU, respectively. Further, the 100 nM hLEPR-MMH Bound (RU) in experiment [3] is 6 RU. The same substance came in with a 100 nM mfLEP.MMH Bound (RU) in [4] of 0 RU. The same substance returned a 100 nM hLEPR-mmH Bound (RU) in experiment [6] of 4 RU. The 500 nM Ab Blocking of 10 nM hLEPR.hFc Binding to hLeptin (% blockade) in [7] is -3%. In addition, the Binding Ratio (normalized to unstained) is 2 fold in experiment [8], 4 fold in experiment [9], 6 fold in experiment [10] and 2 fold in experiment [11].
As for “Alexa Fluor-647 conjugated secondary antibody (Jackson ImmunoResearch Laboratories Inc., #109-547-003), alone”, the Binding Ratio (normalized to unstained) turned out to be 1 fold in experiment [12], 3 fold in experiment [13], 3 fold in experiment [14] and 1 fold in experiment [15].
Consider Mouse IgG2a Isotype control (antibody), for which, in experiment [7], the 500 nM Ab Blocking of 10 nM hLEPR.hFc Binding to hLeptin (% blockade) was determined as 32%.
Turning to “Comparator mAb (Fab9F8 described in Fazeli et al. 2006 and Carpenter et al. 2012) (antibody)”, the 500 nM Ab Blocking of 10 nM hLEPR.hFc Binding to hLeptin (% blockade) in experiment [7] is 99%. The substance further gave a Luminex MFI in experiment [16] of 14 MFI. Moreover, the Binding Ratio (normalized to unstained) in experiment [9] was determined as 112 fold; in experiment [10], 2350 fold.
